Measured values reported in patent publication US10159707B2, “Treatment of cancers with immunostimulatory HIV Tat derivative polypeptides” (PIN Pharma, Inc., priority 2013, dated 2018).

What was measured:
[1] = system: TS/A breast cancer cells; test: TS/A breast carcinoma model, primary tumor growth; type: in vivo, mouse
Experimental: BALB/c mice were injected (SC) with 1×10^4 4 T1, 1×10^5 TS/A or 2×10^5 SM1 cells, respectively, in the left mammary pad on day 0. Immunotherapy was performed by directly injecting a Tat derivative into the right flank at 0, 7, 12, and 17 days after establishment of tumors. The control group received PBS injection. […] Tumor burden (tumor volume) was measured and recorded three times weekly. Animals were sacrificed when tumors reached a volume of 15 mm in diameter and the tumors harvested and weighed.
The 4T1 murine mammary tumor model was chosen for study because it is an aggressive and rapidly invasive tumor; it is routinely metastatic at fourteen days post-implant by which time it is difficult to treat. To learn whether the efficacy of Nani-P2 could extend to other murine breast tumor models, two additional mammary tumors, TS/A and SM1 were studied (FIG. 6). TS/A primary mammary tumors were approximately as aggressive as 4T1, reaching a tumor volume of 15 mm at 30 days (FIG. 6A). However, the TS/A tumors were considerably more responsive to Nani-P2 treatment, with an approximate 50% suppression of growth after treatment with 0.4 ng Nani-P2, and a 40% total remission rate at 30 days.

[2] = system: IFN-γ; test: ELISA analysis of IFN-γ production by immune spleen cells of 4T1 tumor-bearing mice; type: in vivo, mouse
Experimental: Splenocyte secretion of IFN-γ was assessed by an OptEIA™ ELISA kit (BD Biosciences). Briefly, spleen cells (1×10^5/well) from 4T1 tumor-bearing mice were cultured with or without 5×10^3/well mitomycin C (50 μg/ml)-treated 4T1 cells (used to provide tumor antigens) in DMEM at a 20:1 E:T (effector:[…]) in 96-well plates. Supernatants were collected after 72 hr and kept frozen at −80° C. until analysis without loss of activity. IFN-γ was measured in cell-free supernatants of duplicate wells by ELISA according to the manufacturer's instructions. Tumor-specific IFN-γ production was calculated by subtracting the background values measured in supernatants of spleen cells cultured with medium alone and optical density (OD) values were converted to pg/ml amounts of IFN-γ using a recombinant IFN-γ standard curve. Stimulation index (SI) was calculated as the ratio of IFN-γ in stimulated versus control cultures.
To determine whether cytotoxic T-lymphocytes play a role in tumor rejection induced by Nani-P2 therapy, an IFN-γ ELISA assay (FIG. 7) was performed to compare spleen cells of 4T1 tumor-bearing mice treated either without (Control) or with Nani-P2 (FIG. 7). Spleens were removed under sterile conditions and prepared as described elsewhere (duPre'S. et al. Exp. Mol. Path. 85:174-188, 2008). Briefly, spleens were homogenized and splenocytes, as a rich source of systemic cytolytic T cells and APCs, were co-cultured with mitomycin C-treated 4T1 stimulator cells to induce recall immune responses. Control wells were cultured with medium alone.

B1: Nani-P2: Tat derivative polypeptide SEQ ID NO:3; TF SIVagmVer, cysteine-rich HIV-1, C-terminal SIVagmVer (protein)
chain: MDPKGEEDQDVSHQDLIKQYRKPRTACNNCYCKKCCFHCYACFLRKGLGITYHAFRTRRKKIASADRIPVPQQSISIRGRDSQTTQESQKKVEEQAKANLRISRKNLGDETRGPVGAGN
modifications: Tat derivative polypeptide
notes: TF SIVagmVer, cysteine-rich HIV-1, C-terminal SIVagmVer
- suppression of TS/A tumor growth ([1]; 0.4 ng SC): ~50%
- TS/A primary anti-cancer difference versus control, lowest dose ([1]; 0.4 ng SC, p<0.01): highly significant
- TS/A primary anti-cancer difference versus control, 40 ng ([1]; 40 ng SC, p<0.01): highly significant
- TS/A total remission rate at 30 days ([1]; SC Nani-P2, 30 days): 40%
- IFN-γ production of spleen cells versus control mice ([2]; 40 ng SC weekly for 4 weeks, spleens day 33, 72 hr culture, all conditions of assay): significantly (p<0.05*) higher
- baseline levels of INF-γ secreted by splenocytes versus PBS control mice ([2]; no in vitro restimulation): 8 -fold
- stimulation index ([2]; tumor stimulators + IL4 + GM-CSF, versus control): 53
